Measurements published in patent publication US20250147051A1, “METHOD FOR DETECTING A TAU PROTEIN IN A SALIVA SAMPLE” (GTINVENT LIMITED, priority 2022, published 2025).

Legend:
[1] = target: hT40 (Homo sapiens, UniProt P10636); assay: Biacore X100 SPR binding kinetics of anti-tau scAbs (scAb captured via HuCk), analyte hT40; details: lead scAbs, Table 23
Procedure: Surface plasmon resonance (SPR) is widely regarded as the gold standard for real time measurement of protein-protein interactions such as antibody binding. All SPR experiments were carried out using a Biacore X100 machine and HBS EP+ running buffer (GE Healthcare). A ‘capture’ method was followed for affinity measurements, where an anti-human constant kappa chain (HuCk) antibody was conjugated to the surface of a CM5 sensor chip using an amine coupling kit and scAb molecules were immobilised via their HuCk domain. Amine coupling is a very common approach for immobilising the ligand to the chip surface. […] The capture antibody was diluted 1/100 in 10 mM Sodium acetate buffer pH 5.0 and passed over the activated chip surface for a period of at least 420 s. Final ligand immobilisation levels over 12,000 RU were deemed to be satisfactory.
Following immobilisation, the level of each scAb to be captured was identified using the standard SPR equation with a theoretical RMax of 100 RU. Analyte MW refers to the molecular weight of hT40 or dGA/dGAE molecules, while ligand MW refers to the molecular weight of the scAbs tested. […]
(§1) The single cycle kinetics protocol was similar and utilised the same level of scAb capture. […] Binding responses were analysed in Biacore X100 evaluation software and data fitted to a 1:1 binding model to obtain kinetic and affinity characterisation.

[2] = target: dGAE (Homo sapiens, UniProt P10636); assay: Biacore X100 SPR binding kinetics of anti-tau scAbs (scAb captured via HuCk), analyte dGAE; details: lead scAbs
Chain of dGAE (P10636 614-708): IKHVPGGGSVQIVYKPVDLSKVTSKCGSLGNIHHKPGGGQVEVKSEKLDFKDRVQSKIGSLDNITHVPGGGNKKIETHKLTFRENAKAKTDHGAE
Procedure: Surface plasmon resonance (SPR) is widely regarded as the gold standard for real time measurement of protein-protein interactions such as antibody binding. All SPR experiments were carried out using a Biacore X100 machine and HBS EP+ running buffer (GE Healthcare). A ‘capture’ method was followed for affinity measurements, where an anti-human constant kappa chain (HuCk) antibody was conjugated to the surface of a CM5 sensor chip using an amine coupling kit and scAb molecules were immobilised via their HuCk domain. Amine coupling is a very common approach for immobilising the ligand to the chip surface. The chip surface has a dextran matrix derivatised with carboxyl groups, which after activation with N-hydroxysuccinimide (NHS) and 1-ethyl-3-(3-dimethylaminopropyl) carbodiimide (EDC), form reactive succinimide esters which allows the covalent capturing of the ligand via any available primary amine groups (e.g. Lysine) on the ligand (in this case anti-HuCk antibody). The capture antibody was diluted 1/100 in 10 mM Sodium acetate buffer pH 5.0 and passed over the activated chip surface for a period of at least 420 s. Final ligand immobilisation levels over 12,000 RU were deemed to be satisfactory.
Following immobilisation, the level of each scAb to be captured was identified using the standard SPR equation with a theoretical RMax of 100 RU. Analyte MW refers to the molecular weight of hT40 or dGA/dGAE molecules, while ligand MW refers to the molecular weight of the scAbs tested. RLis the desired capture level and S refers to the stoichiometric ratio:
The scAb to be tested was added only to flow cell 2 so that flow cell 1 could act as a control to subtract any interaction with the analyte and the chip surface. Both single and multi-cycle runs were utilised using wizards developed in the Biacore X100 control software which are both accepted methods of kinetic analysis (Karlsson, R., et al. Analyzing a kinetic titration series using affinity biosensors (2006) Analytical Biochemistry 349:136-47). The multi-cycle protocol was as follows-Three start-up cycles composed of an initial capture, to the desired level, of the scAb to be tested was performed followed by a 30 s injection of glycine buffer pH 2.0 after each cycle to regenerate the chip surface. The regeneration step removed any captured scAb whilst leaving the capture antibody intact and able to repeat the capture for the next cycle. […]
as §1

Chain of hT40 (P10636 1-441 isoform P10636-8): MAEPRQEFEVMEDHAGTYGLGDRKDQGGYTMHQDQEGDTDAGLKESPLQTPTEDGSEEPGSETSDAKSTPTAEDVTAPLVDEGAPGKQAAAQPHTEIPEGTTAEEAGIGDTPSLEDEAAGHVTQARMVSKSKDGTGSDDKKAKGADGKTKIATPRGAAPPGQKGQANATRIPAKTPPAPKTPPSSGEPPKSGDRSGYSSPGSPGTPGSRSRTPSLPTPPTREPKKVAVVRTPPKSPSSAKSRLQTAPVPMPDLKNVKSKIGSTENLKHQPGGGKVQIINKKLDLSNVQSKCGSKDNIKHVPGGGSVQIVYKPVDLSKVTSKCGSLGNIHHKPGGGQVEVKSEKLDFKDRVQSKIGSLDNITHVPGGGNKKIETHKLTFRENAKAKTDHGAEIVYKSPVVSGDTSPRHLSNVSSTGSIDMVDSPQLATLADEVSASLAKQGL

B1: E2E8: anti-tau clone, SEQ ID NO: 248 (protein)
scFv: QVQLQESGPSLVKPSQTLSLTCTVSGFSLTDRGVAWVRQAPGKALEWVGTMRSGGTIDYNPALKSRLSITRDTSKSQVFLSLSSVTTEDMAMYYCARGYLSGDRYAWGRGLLVTVSSEGKSSGASGESKVDDQAVLTQPSSVSKSLGQSVSIACSGSRSDIGYGNYVSWFQQIPGSAPKLLIYDTNTRASGVPDRFSGARSGNTATLTINSLQAEDEADYYCANIDSSRSHLFGSGTRLTVLG
modifications: E2E8 amino acid sequence
- T441 binding (result in words) [1]: No T441 binding
- ka ([2]; Table 24): 477000 M⁻¹ s⁻¹
- dissociation rate constant (koff) ([2]; Table 24, dissociation rate): 0.0001915 s⁻¹
